We go through 1 protein from patent US20100144617.

The target in series [1] is T1, OXM2 (not fully specified).
T1 chain: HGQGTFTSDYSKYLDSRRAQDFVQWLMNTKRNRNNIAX

In series [2] the target is T2, Native porcine OXM, P01274.
T2 chain: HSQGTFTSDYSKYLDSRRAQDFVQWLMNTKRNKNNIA

B1: recombinant soluble human DP-IV (protein)
chain: SRKTYTLTDYLKNTYRLKLYSLRWISDHEYLYKQENNILVFNAEYGNSSVFLENSTFDEFGHSINDYSISPDGQFILLEYNYVKQWRHSYTASYDIYDLNKRQLITEERIPNNTQWVTWSPVGHKLAYVWNNDIYVKIEPNLPSYRITWTGKEDIIYNGITDWVYEEEVFSAYSALWWSPNGTFLAYAQFNDTEVPLIEYSFYSDESLQYPKTVRVPYPKAGAVNPTVKFFVVNTDSLSSVTNATSIQITAPASMLIGDHYLCDVTWATQERISLQWLRRIQNYSVMDICDYDESSGRWNCLVARQHIEMSTTGWVGRFRPSEPHFTLDGNSFYKIISNEEGYRHICYFQIDKKDCTFITKGTWEVIGIEALTSDYLYYISNEYKGMPGGRNLYKIQLSDYTKVTCLSCELNPERCQYYSVSFSKEAKYYQLRCSGPGLPLYTLHSSVNDKGLRVLEDNSALDKMLQNVQMPSKKLDFIILNETKFWYQMILPPHFDKSKKYPLLLDVYAGPCSQKADTVFRLNWATYLASTENIIVASFDGRGSGYQGDKIMHAINRRLGTFEVEDQIEAARQFSKMGFVDNKRIAIWGWSYGGYVTSMVLGSGSGVFKCGIAVAPVSRWEYYDSVYTERYMGLPTPEDNLDHYRNSTVMSRAENFKQVEYLLIHGTADDNVHFQQSAQISKALVDVGVDFQAMWYTDEDHGIASSTAHQHIYTHMSHFIKQCFSLP
On to B1, for which the “loss of potency at hGLP-1R (cAMP HTRF) after preincubation with DP-IV” value in series [1] and in series [2] was “loss of potency due to preincubation of the peptides with DP-IV” throughout.
